In patent US20240400616A1 (Bicycle, published 2024):
Values belong to the binder of their own block, whether it stands above or below them. *1 amine or outer side, *2 acyl side, *3 side chain or, on linkers, in order; H or OH if unused. Bridges are numbered along the chain shown (N, C = ends). Where no end group is shown, it is not given here. [ ]: non-standard residue; d: D form. TATA = O=C(CC[*:1])N1CN(C(=O)CC[*:2])CN(C(=O)CC[*:3])C1; fluorescein = fluorescein (Fl) label on lysine; 1Nal = N[C@@H](Cc1cccc2ccccc12)C(=O)O; PABC = O=C(OCc1ccc(N[*:1])cc1)[*:2]; Glutaryl = O=C(CCCC(=O)[*:2])[*:1]; Hyp = O=C(O)[C@@H]1C[C@@H](O)CN1; hArg = N=C(N)NCCCC[C@H](N)C(=O)O; Cit = NC(=O)NCCC[C@H](N)C(=O)O; βAla = NCCC(=O)O; Sar = CNCC(=O)O

Legend:
[1] = target: T1, human Nectin-4 (protein used in the fluorescence polarisation direct and competition binding assays) (human, UniProt Q96NY8 32-349); experiment: fluorescence polarisation competition; competitor: fluorescent tracer SEQ ID NO: 2; 6 experiments
T1 construct: It may be the Gly32-Ser349 FLAG construct described for SPR
T1 sequence (looked up): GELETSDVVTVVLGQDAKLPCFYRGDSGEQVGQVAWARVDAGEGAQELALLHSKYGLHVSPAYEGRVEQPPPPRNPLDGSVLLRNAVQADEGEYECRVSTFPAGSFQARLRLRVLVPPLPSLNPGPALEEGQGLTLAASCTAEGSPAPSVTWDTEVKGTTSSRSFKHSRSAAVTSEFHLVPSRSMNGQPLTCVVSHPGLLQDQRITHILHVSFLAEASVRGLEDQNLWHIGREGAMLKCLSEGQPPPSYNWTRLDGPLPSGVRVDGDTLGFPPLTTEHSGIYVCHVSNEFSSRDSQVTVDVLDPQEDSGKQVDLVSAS
Experimental: (§1) Affinity of the peptides of the invention for human Nectin-4 (Ki) was determined using a fluorescence polarisation assay, in accordance with the methods disclosed in WO 2016/067035. Peptides of the invention with a fluorescent tag (either fluorescein, SIGMA or Alexa Fluor488™, Fisher Scientific) were diluted to 2.5 nM in PBS with 0.01% tween 20 or 50 mM HEPES with 100 mM NaCl and 0.01% tween pH 7.4 (both referred to as assay buffer). […] Measurements were conducted on a BMG PHERAstar FS equipped with an “FP 485 520 520” optic module which excites at 485 nm and detects parallel and perpendicular emission at 520 nm. The PHERAstar FS was set at 25° C. with 200 flashes per well and a positioning delay of 0.1 second, with each well measured at 5 to 10 minute intervals for 60 minutes. […] Data was analysed using Systat Sigmaplot version 12.0. mP values were fit to a user defined quadratic equation to generate a Kd value: f=ymin+ (ymax−ymin)/Lig*((x+Lig+Kd)/2-sqrt((((x+Lig+Kd)/2)\hat{ }2)−(Lig*x))).
(§2) Peptides were diluted to an appropriate concentration in assay buffer as described in the direct binding assay with a maximum of 5% DMSO, then serially diluted 1 in 2. […] Measurements were conducted as for the direct binding assay, however the gain was determined prior to the first measurement. […]

[2] = target: T2, Human Nectin-4 (residues Gly32-Ser349; NCBI RefSeq: NP_112178.2) with C-terminal FLAG tag, biotinylated (human, UniProt Q96NY8 32-349, randomly biotinylated with EZ-Link Sulfo-NHS-LC-LC-Biotin); experiment: Biacore SPR, biotinylated Nectin-4 captured on streptavidin chip, peptide as analyte; n = 4
T2 construct: range 32-349; also called human Necin-4 protein; biotinylated Nectin-4; not shown: C-terminal FLAG tag
T2 sequence (looked up): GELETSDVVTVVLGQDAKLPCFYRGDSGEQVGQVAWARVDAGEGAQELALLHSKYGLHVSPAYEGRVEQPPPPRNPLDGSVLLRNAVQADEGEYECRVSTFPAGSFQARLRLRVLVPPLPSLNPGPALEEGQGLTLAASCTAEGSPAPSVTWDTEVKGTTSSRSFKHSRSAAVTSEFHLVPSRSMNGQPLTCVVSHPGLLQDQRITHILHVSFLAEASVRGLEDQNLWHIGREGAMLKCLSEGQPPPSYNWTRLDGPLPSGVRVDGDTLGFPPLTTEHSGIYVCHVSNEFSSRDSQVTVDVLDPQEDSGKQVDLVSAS

[3] = target: T2, Human Nectin-4 (residues Gly32-Ser349; …); experiment: Biacore SPR, biotinylated Nectin-4 captured on streptavidin chip, conjugate as analyte
[4] = target: T3, Nectin-4 on MDA-MB-468 cells (UniProt Q96NY8 32-510, limits assumed); experiment: HCS cell-binding assay on MDA-MB-468 cells at 4°C: cells incubated with the test agent, washed, detected with a fluorescent antibody to MMAE; readout membrane mean intensity CH2 (RFU) [A]
T3 construct: whole, on cells; the cell line is a human breast cancer line; also called PVRL-4
T3 sequence (looked up): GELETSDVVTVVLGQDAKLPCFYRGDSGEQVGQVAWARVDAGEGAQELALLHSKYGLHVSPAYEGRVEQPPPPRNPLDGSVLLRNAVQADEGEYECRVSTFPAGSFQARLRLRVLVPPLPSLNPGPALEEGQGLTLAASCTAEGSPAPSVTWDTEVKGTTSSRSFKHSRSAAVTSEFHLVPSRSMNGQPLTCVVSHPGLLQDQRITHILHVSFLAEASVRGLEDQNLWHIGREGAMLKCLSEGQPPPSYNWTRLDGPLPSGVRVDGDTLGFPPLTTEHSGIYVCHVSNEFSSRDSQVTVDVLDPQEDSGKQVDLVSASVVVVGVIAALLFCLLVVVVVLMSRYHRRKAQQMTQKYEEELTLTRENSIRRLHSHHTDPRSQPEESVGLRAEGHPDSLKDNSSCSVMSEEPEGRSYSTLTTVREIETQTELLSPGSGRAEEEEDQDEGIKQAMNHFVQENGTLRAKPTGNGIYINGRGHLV
Experimental: (§3) HCS assay was used in Nectin-4 BDC binding study. Cells were incubated with test agent and then washed. Detection was by a fluorescent antibody to MMAE.

[5] = target: T3, Nectin-4 on MDA-MB-468 cells; experiment: historical Kd as printed in Table 44; assay not described
[6] = target: T3, Nectin-4 on MDA-MB-468 cells; experiment: HCS cell binding assay on MDA-MB-468 cells, detection with fluorescent anti-MMAE antibody
Experimental: as §3

[7] = target: T1, human Nectin-4 (protein used in the …); experiment: fluorescence polarisation direct binding assay
Experimental: as §1

[8] = target: T2, Human Nectin-4 (residues Gly32-Ser349; …); experiment: Biacore SPR, biotinylated Nectin-4 captured on streptavidin chip, peptide as analyte; n = 1
[9] = target: T1, human Nectin-4 (protein used in the …); experiment: fluorescence polarisation competition; competitor: fluorescent tracer SEQ ID NO: 2; 2 experiments
Experimental: as §1, §2

Ki [1]: 2.7 nM
Kd [2]: 1.07 nM
B1: BCY8126: Ac-(SEQ ID NO: 1), cyclised with TATA (peptide)
peptide: CPADCMRDWSTPPWC
modifications: N-terminal acetyl; core as printed Ci-P1-[1Nal]2-[dD]3-Cii-M4-[HArg]5-D6-W7-S8-T9-P10-[HyP]11-W12-Ciii (1Nal = 1-naphthylalanine, dD = D-Asp, HArg = homoarginine, HyP = hydroxyproline); Ci, Cii and Ciii covalently bound to the TATA scaffold
notes: Bicyclic peptide

Kd [3]: 5.12 nM
EC50 (read off the curve) [4]: ~3 nM
Kd [5]: 5.18 nM
Kd [6]: 3.52 nM
B2: BCY8245: MMAE-PABC-Cit-Val-Glutaryl-BCY8234 (BCY8234 = [B-Ala][Sar10]-(SEQ ID NO: 1), cyclised with TATA) (peptide)
peptide: {MMAE-PABC-Cit-Val-Glutaryl}-[βAla][Sar][Sar][Sar][Sar][Sar][Sar][Sar][Sar][Sar][Sar]CP[1Nal][dD]CM[hArg]DWSTP[Hyp]WC
modifications: linker 12-16-26 via TATA
notes: Bicyclic peptide drug conjugate (BDC) with an MMAE to drug ratio of 1; also called BT8009

Kd [7]: 5 nM
Binder: ACPFGCHTDWSWPIWCA[Sar][Sar][Sar][Sar][Sar][Sar]K(fluorescein) (linker 2-6-16 via TATA, also called fluorescent peptide; tracer) [ACPFGCHTDWSWPIWCA-Sar6-K(FI) (SEQ ID NO: 2)]

Kd [8]: 0.89 nM
Ki [9]: 3 nM
Binder: Ac-[βAla][Sar][Sar][Sar][Sar][Sar]CP[1Nal][dD]CM[hArg]DWSTP[Hyp]WC (linker 7-11-21 via TATA, Bicyclic peptide) [BCY8122: Ac-[B-Ala][Sar5]-(SEQ ID NO: 1), cyclised with TATA]

Kd [8]: 0.372 nM
B3: BCY8116: (SEQ ID NO: 1), cyclised with TATA (peptide)
peptide: CPADCMRDWSTPPWC
modifications: core as printed Ci-P1-[1Nal]2-[dD]3-Cii-M4-[HArg]5-D6-W7-S8-T9-P10-[HyP]11-W12-Ciii (1Nal = 1-naphthylalanine, dD = D-Asp, HArg = homoarginine, HyP = hydroxyproline); Ci, Cii and Ciii covalently bound to the TATA scaffold
notes: Bicyclic peptide
